Values belong to the substance of their own block, whether it stands above or below them.
Assays:
[1] = molecular target: H-2K^b (mouse) (UniProt P01901); experiment: flow cytometry, RMA-S transfectant Y317-2, 37° C.
[2] = molecular target: K^b/OVA257-264 complex on Y317-2 cells (H-2K^b with OVA257-264 linked to human membranal β2m) (mouse; chicken; human); experiment: flow cytometry, RMA-S transfectant Y317-2, 37° C.
[3] = molecular target: H-2K^k (mouse) (UniProt P04223); experiment: flow cytometry with QIFIKIT, parental MD45 cells
Sequence of UniProt P04223 (P04223 22-369 limits assumed): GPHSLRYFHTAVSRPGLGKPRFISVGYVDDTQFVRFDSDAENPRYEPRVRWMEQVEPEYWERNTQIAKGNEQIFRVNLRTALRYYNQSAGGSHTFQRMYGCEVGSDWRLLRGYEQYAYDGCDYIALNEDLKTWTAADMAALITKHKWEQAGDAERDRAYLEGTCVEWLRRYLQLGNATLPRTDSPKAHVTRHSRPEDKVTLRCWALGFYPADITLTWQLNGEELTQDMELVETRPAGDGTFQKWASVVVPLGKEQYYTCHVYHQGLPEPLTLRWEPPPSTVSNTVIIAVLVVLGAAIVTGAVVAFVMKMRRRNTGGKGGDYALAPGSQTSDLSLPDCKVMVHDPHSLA

[4] = molecular target: H-2K^k (mouse) (UniProt P04223); experiment: flow cytometry with QIFIKIT, MD45 transfectant 425-44
[5] = molecular target: H-2K^k (mouse) (UniProt P04223); experiment: flow cytometry with QIFIKIT, MD45 transfectant 427-24
[6] = molecular target: hβ2m-CD40 (human β2m fused through a bridge to the mouse CD40 transmembrane and cytoplasmic region) (human; mouse) (UniProt P61769); experiment: cell-based or functional assay
[7] = molecular target: NP50-57 dcβ2m (NP50-57 - linker - human β2m - bridge - mouse CD3 ζ) (influenza virus; human; mouse) (UniProt P61769); experiment: flow cytometry with QIFIKIT, MD45 transfectant 425-44
[8] = molecular target: Ha255-262 dcβ2m (Ha255-262 - linker - human β2m - bridge - mouse CD3 ζ) (influenza virus; human; mouse) (UniProt P61769); experiment: flow cytometry with QIFIKIT, MD45 transfectant 427-24
[9] = molecular target: H-2K^k (mouse) (UniProt P04223); experiment: derived from QIFIKIT flow cytometry with Fab13.4.1 and AF3-12.1 on 427-24 cells
[10] = molecular target: H-2K^b (mouse) (UniProt P01901); experiment: derived from MFI of 25D-1.16 and anti-H-2K^b staining of Y317-2 cells at 37° C.
[11] = molecular target: H-2K^d (mouse) (UniProt P01902); experiment: cell-based or functional assay
Sequence of UniProt P01902 (P01902 22-305 limits assumed): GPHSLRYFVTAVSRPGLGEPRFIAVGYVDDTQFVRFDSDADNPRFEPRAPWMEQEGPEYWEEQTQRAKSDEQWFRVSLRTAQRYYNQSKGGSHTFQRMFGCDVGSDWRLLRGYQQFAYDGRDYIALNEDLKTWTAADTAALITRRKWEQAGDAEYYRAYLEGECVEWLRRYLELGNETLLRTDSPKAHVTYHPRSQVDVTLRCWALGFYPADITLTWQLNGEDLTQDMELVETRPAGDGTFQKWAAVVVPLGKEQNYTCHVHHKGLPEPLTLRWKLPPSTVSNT

Sequence of UniProt P01901 (P01901 22-369 limits assumed): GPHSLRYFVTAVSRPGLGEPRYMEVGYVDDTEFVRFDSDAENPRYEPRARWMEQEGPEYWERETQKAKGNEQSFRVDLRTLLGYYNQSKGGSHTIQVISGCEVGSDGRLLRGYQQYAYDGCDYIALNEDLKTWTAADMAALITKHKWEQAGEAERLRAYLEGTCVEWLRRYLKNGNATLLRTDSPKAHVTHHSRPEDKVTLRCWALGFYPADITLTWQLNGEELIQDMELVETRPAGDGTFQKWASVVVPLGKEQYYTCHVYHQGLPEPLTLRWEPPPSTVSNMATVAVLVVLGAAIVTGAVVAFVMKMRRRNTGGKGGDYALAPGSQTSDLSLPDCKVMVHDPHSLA

Substance: 25-D1.16 mAb specific to the complex H-2K^b/OVA257-264 (antibody)
mean fluorescence intensity [2]: 69.7 MFI

Substance: AF3-12.1 anti-K^k mAb (antibody)
quantity of surface antigen (QIFIKIT) [3]: 10900 | quantity of surface antigen (QIFIKIT) [4]: 37600 | quantity of surface antigen (QIFIKIT) [5]: 28600

Substance: BM-63 anti-human β2m mAb (antibody)
decrease of total cellular IκBα (immunoblot) in A20 transfectant [6]: 39% | quantity of surface antigen (QIFIKIT) [7]: 467000 | quantity of surface antigen (QIFIKIT) [8]: 173000

Substance: Ha255-262 dcβ2m (Ha255-262 - linker - human β2m - bridge - mouse CD3 ζ) (from UniProt P61769 21-119; P24161 31-164)
occupation of surface H-2K^k molecules [9]: 20%

Substance: hβ2m-CD40 (human β2m fused through a bridge to the mouse CD40 transmembrane and cytoplasmic region) (from UniProt P61769 21-119; P27512 194-289)
reduction of total cellular IκBα (immunoblot) in A20 transfectant after incubation with an anti-H-2 K^d mAb [11]: 71%

Results, then the substance that gave them:

mean fluorescence intensity [1]: 122 MFI
Substance: 20-8-4 anti-H-2K^b mAb (antibody)

H-2K^b occupancy [10]: 57%
Substance: OVA257-264 dcβ2m with human β2m and H-2K^b anchor (from UniProt P61769 21-119)

— US20080286312A1
